Laboratory results as given in the supplement of paper PMC9112550, “Optimization of the antimicrobial peptide Bac7 by deep mutational scanning” (BMC Biology, 2022).

Each sequence was assayed on Escherichia coli TOP10 (assay: shrunken log2 fold change of peptide-encoding DNA abundance (4.5 h post-induction vs induction); higher = less antimicrobial activity (less host growth inhibition)). Conditions: time post-induction: 4.5 h; library: site-saturation at positions 5, 18, 19, 20.
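Also: peptides expressed intracellularly from a pBAD plasmid library in pooled LB shake-flask culture, induced with 0.3% L-arabinose, DNA abundance read by NGS, three biological replicates, DESeq2 with apeglm shrinkage.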

Sequence	shrunken log2 fold change
RRIRSRPPRLPRPRPRPQPKPRP	0.526
RRIRPRPPRLPRPRPRPHNEPRP	-0.397
RRIRNRPPRLPRPRPRPPDGPRP	0.313
RRIRDRPPRLPRPRPRPAHDPRP	0.414
RRIRQRPPRLPRPRPRPMDEPRP	0.0268
RRIRMRPPRLPRPRPRPYCGPRP	-0.0255
RRIRGRPPRLPRPRPRPRAYPRP	0.338
RRIRTRPPRLPRPRPRPANTPRP	-0.181
RRIRCRPPRLPRPRPRPKQCPRP	0.269
RRIRSRPPRLPRPRPRPWVFPRP	0.0645
RRIRDRPPRLPRPRPRPNHSPRP	-0.33
RRIRMRPPRLPRPRPRPWEVPRP	-0.00931
RRIRQRPPRLPRPRPRPKELPRP	-0.534
RRIRQRPPRLPRPRPRPRNLPRP	0.242
RRIRMRPPRLPRPRPRPNCPPRP	-0.0204
RRIRLRPPRLPRPRPRPLSLPRP	-0.145
RRIRRRPPRLPRPRPRPHGCPRP	0.000335
RRIRCRPPRLPRPRPRPHFMPRP	-0.774
RRIRDRPPRLPRPRPRPEWDPRP	1.4
RRIRNRPPRLPRPRPRPRSLPRP	0.0993
RRIRFRPPRLPRPRPRPQVEPRP	-0.0419
RRIRIRPPRLPRPRPRPGHGPRP	-0.062

Sequence	shrunken log2 fold change
RRIRQRPPRLPRPRPRPNYGPRP	-0.299
RRIRNRPPRLPRPRPRPHIFPRP	-0.0701
RRIRFRPPRLPRPRPRPVKTPRP	0.0856
RRIRMRPPRLPRPRPRPWWEPRP	-0.425
RRIRVRPPRLPRPRPRPEIRPRP	0.173
RRIRYRPPRLPRPRPRPKPAPRP	-0.0511
RRIRQRPPRLPRPRPRPMYFPRP	-0.448
RRIRCRPPRLPRPRPRPASSPRP	0.124
RRIRYRPPRLPRPRPRPTNQPRP	-0.575
RRIRWRPPRLPRPRPRPWQYPRP	-0.0277
RRIRERPPRLPRPRPRPNNLPRP	-1.05
RRIRARPPRLPRPRPRPSWCPRP	-0.207
RRIRSRPPRLPRPRPRPKMVPRP	-0.309
RRIRWRPPRLPRPRPRPHCKPRP	-0.233
RRIRDRPPRLPRPRPRPVQPPRP	0.196
RRIRQRPPRLPRPRPRPKMSPRP	-0.101
RRIRKRPPRLPRPRPRPPQTPRP	0.559
RRIRHRPPRLPRPRPRPMPAPRP	0.337
RRIRFRPPRLPRPRPRPFVYPRP	-0.413
RRIRQRPPRLPRPRPRPVTLPRP	-0.153
RRIRKRPPRLPRPRPRPNDLPRP	-0.054
RRIRGRPPRLPRPRPRPFIVPRP	-0.00433

Sequence	shrunken log2 fold change
RRIRIRPPRLPRPRPRPCTYPRP	-0.0592
RRIRRRPPRLPRPRPRPHFEPRP	-0.211
RRIRGRPPRLPRPRPRPWHNPRP	-0.145
RRIRFRPPRLPRPRPRPVDFPRP	-0.452
RRIRARPPRLPRPRPRPIIQPRP	-0.206
RRIRVRPPRLPRPRPRPAHRPRP	-0.0183
RRIRGRPPRLPRPRPRPQGMPRP	0.0957
RRIRRRPPRLPRPRPRPADYPRP	-0.0547
RRIRIRPPRLPRPRPRPYYPPRP	-1.36
RRIRDRPPRLPRPRPRPGPYPRP	-0.079
RRIRDRPPRLPRPRPRPSTLPRP	-0.267
RRIRPRPPRLPRPRPRPGGMPRP	0.189
RRIRLRPPRLPRPRPRPCTYPRP	-0.683
RRIRWRPPRLPRPRPRPGNKPRP	-0.0586
RRIRPRPPRLPRPRPRPKTNPRP	0.0176
RRIRYRPPRLPRPRPRPYDLPRP	-0.0181
RRIRPRPPRLPRPRPRPGCMPRP	0.179
RRIRVRPPRLPRPRPRPLPRPRP	0.642
RRIRRRPPRLPRPRPRPGGDPRP	0.48
RRIRKRPPRLPRPRPRPLISPRP	0.0452
RRIRSRPPRLPRPRPRPGVEPRP	0.463
RRIRHRPPRLPRPRPRPCWIPRP	-0.00991

Sequence	shrunken log2 fold change
RRIRYRPPRLPRPRPRPSVHPRP	-0.284
RRIRYRPPRLPRPRPRPWLMPRP	-0.0285
RRIRGRPPRLPRPRPRPPCPPRP	0.86
RRIRCRPPRLPRPRPRPCRYPRP	-0.446
RRIRERPPRLPRPRPRPSLFPRP	-0.44
RRIRQRPPRLPRPRPRPDATPRP	0.495
RRIRKRPPRLPRPRPRPDFQPRP	0.33
RRIRDRPPRLPRPRPRPYDPPRP	0.0101
RRIRHRPPRLPRPRPRPYAAPRP	-0.519
RRIRSRPPRLPRPRPRPMVVPRP	0.149
RRIRKRPPRLPRPRPRPLHHPRP	0.141
RRIRSRPPRLPRPRPRPITQPRP	-0.0534
RRIRKRPPRLPRPRPRPQCGPRP	0.0718
RRIRGRPPRLPRPRPRPFCNPRP	0.243
RRIRDRPPRLPRPRPRPYVEPRP	-0.125
RRIRRRPPRLPRPRPRPVWPPRP	0.36
RRIRLRPPRLPRPRPRPNLAPRP	-0.0506
RRIRARPPRLPRPRPRPASDPRP	0.661
RRIRVRPPRLPRPRPRPRVLPRP	0.0884
RRIRFRPPRLPRPRPRPAYIPRP	-0.601
RRIRARPPRLPRPRPRPMLGPRP	0.211
RRIRCRPPRLPRPRPRPTFIPRP	-0.307

Sequence	shrunken log2 fold change
RRIRHRPPRLPRPRPRPKAWPRP	-0.00151
RRIRQRPPRLPRPRPRPMACPRP	-0.159
RRIRFRPPRLPRPRPRPIVSPRP	0.303
RRIRVRPPRLPRPRPRPGKLPRP	0.126
RRIRMRPPRLPRPRPRPLPFPRP	-0.117
RRIRWRPPRLPRPRPRPGHRPRP	0.315
RRIRRRPPRLPRPRPRPMLFPRP	0.263
RRIRVRPPRLPRPRPRPPFIPRP	-0.23
RRIRTRPPRLPRPRPRPHIRPRP	-0.271
RRIRFRPPRLPRPRPRPIDWPRP	-0.0094
RRIRKRPPRLPRPRPRPMNNPRP	-0.0152
RRIRSRPPRLPRPRPRPYEDPRP	-0.129
RRIRKRPPRLPRPRPRPDNIPRP	-0.0306
RRIRNRPPRLPRPRPRPNPRPRP	0.286
RRIRTRPPRLPRPRPRPSPVPRP	0.0854
RRIRIRPPRLPRPRPRPLESPRP	0.0516
RRIRERPPRLPRPRPRPPGAPRP	0.573
RRIRGRPPRLPRPRPRPIDIPRP	-0.0347
RRIRTRPPRLPRPRPRPTMCPRP	-0.416
RRIRHRPPRLPRPRPRPYQRPRP	0.0916
RRIRQRPPRLPRPRPRPRDGPRP	0.666
